Measured values: article doi:10.1101/2022.08.26.505501 (bioRxiv, 2022)

T1: co-expressed Kae1-Pcc1 subcomplex (2Kae1:2Pcc1) (Saccharolobus islandicus REY15A, UniProt F0NFC9 1-331; F0NF65 1-91)
T1 sequence (looked up) 1: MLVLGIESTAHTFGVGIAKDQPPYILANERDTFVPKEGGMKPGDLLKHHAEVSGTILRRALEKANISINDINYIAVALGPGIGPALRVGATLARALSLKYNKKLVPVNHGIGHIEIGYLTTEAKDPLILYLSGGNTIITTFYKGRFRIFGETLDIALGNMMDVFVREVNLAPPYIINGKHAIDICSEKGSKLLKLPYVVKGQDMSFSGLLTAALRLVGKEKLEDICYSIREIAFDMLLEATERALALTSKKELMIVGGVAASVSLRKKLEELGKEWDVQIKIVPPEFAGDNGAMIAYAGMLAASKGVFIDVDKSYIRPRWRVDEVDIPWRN
T1 sequence (looked up) 2: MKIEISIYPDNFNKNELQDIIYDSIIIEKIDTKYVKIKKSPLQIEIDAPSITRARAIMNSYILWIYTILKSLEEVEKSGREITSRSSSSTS

T2: His-Pcc1 co-expressed with no-tagged SisKae1 (Saccharolobus islandicus REY15A, UniProt F0NF65 1-91)
T2 sequence (looked up): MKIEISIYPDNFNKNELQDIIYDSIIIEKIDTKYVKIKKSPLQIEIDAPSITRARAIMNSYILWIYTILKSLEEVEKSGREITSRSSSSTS

B1: no-tagged SisKae1 (enzyme, Saccharolobus islandicus REY15A, UniProt F0NFC9 1-331, looked up)
chain: MLVLGIESTAHTFGVGIAKDQPPYILANERDTFVPKEGGMKPGDLLKHHAEVSGTILRRALEKANISINDINYIAVALGPGIGPALRVGATLARALSLKYNKKLVPVNHGIGHIEIGYLTTEAKDPLILYLSGGNTIITTFYKGRFRIFGETLDIALGNMMDVFVREVNLAPPYIINGKHAIDICSEKGSKLLKLPYVVKGQDMSFSGLLTAALRLVGKEKLEDICYSIREIAFDMLLEATERALALTSKKELMIVGGVAASVSLRKKLEELGKEWDVQIKIVPPEFAGDNGAMIAYAGMLAASKGVFIDVDKSYIRPRWRVDEVDIPWRN

Key:
Assay in all cases: SEC
[1] = target: B1
[2] = target: T1, co-expressed Kae1-Pcc1 subcomplex …
[3] = target: Flag-tagged SisKae1 co-expressed with His-tagged SisPcc1-like (Saccharolobus islandicus REY15A)
[4] = target: T2, His-Pcc1 co-expressed with no-tagged …

Row | Binder | stoichiometry N [1] | stoichiometry N [2] | stoichiometry N (Pcc1-like per Kae1) [3] | stoichiometry N [4]
1 | His-SisPcc1-like (natural protein, Saccharolobus islandicus REY15A, UniProt F0NIH8 1-81, looked up) MIELRILSEHEDAELIIRSLNVDNVNLPEGMSIQTKVEGKELEIVIKMRITKPNDLMTVRNTADEILAHIKALQSSFDAIS | 1 Kae1:Pcc1-like (1:1) | 1 Kae1:Pcc1:Pcc1-like (1:1:1) | 2 | –
2 | B1 | – | – | – | 1 Kae1:Pcc1 (2:2)
